Test results taken from the nanobody polyreactivity screen of Harvey et al. (2022).

Assay: yeast display, Sf9 membrane polyspecificity reagent, FACS + sequencing; frameworks hold sequencing errors
Outline: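 Polyreactivity labels are assigned by the sorting gate from which each nanobody was recovered. The gates were low and high (top ~1%), set on anti-HA fluorescence for expression and streptavidin fluorescence for reagent binding. Before sorting, galactose-induced (36–48 hours) yeast display cells were stained for 1 hour at 4 °C with 10% biotinylated, detergent-solubilized Sf9 membrane reagent.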

Sequence | polyreactivity (PSR sort gate)
HVQLQESGGGLMQAGGSQRLSCAASGSISYNSDMGWYRQAPGKEREFVAGIGYGTTTNYADSVKGRFTTSRDNAKNTVYLQMISMKPEDTEVYYCAAYQGNGYEFYYWGQGTQVTVRS | low polyreactivity
HVQLVDSGGGLVQAGGSLRLTCAASGNIFVPYAMGWYRQAPGKERELVAAINGGGSTNYADSLKGRFTISRDNAKNTVYLQMNSLKPEDTAVYYCAAVWYFLSLWYDYWGQGTQVTVSS | high polyreactivity
HVQLVDSSGRVVQARCSLRLSCAASGSTFHDNAMGWYRQAPGKDRDLEAAISSGGRTNYADSVKGRFTISRDNAKNTVYLQMNCLKPEDTAVYYCAASFRRWYFYARHDYGYWGLGTQVTVSS | low polyreactivity
HVQLVESAGGLVQAGGSLRLSCAASGFIFGYYAMGWYRQAPGKERELVAAINYNDDSTYYADSVKGRFTISRDNAKNTVYLQMNSLKPEDTAVYYCAVRRWDAGDYWGQGTQVTVSS | low polyreactivity
HVQLVESAGGLVQAGGSLRVSCAASGRTFVENAMGWYRQAPGKERELVAAITYRGGRTFYADSVKGRFTISLDNAKNTVYLQMNSLTPEETAVYYCNAVRRTGGHGDYWGHGTQVTVSS | high polyreactivity
HVQLVESAGGLVQARGSLRLSCAASGSIFVTYAMGWYRQARGKERELVATITYSGGSTSYADSVKGRFTISRDNAKITVYLQMNSLKPDDTAVYFCAADLDSDFDYWGQGTQVTVSS | low polyreactivity
HVQLVESGGGLVQAGGSLRESCAASGRTFDDIAMGRYRQAPGKERELVAAINWSGASTYYADSVKGRFTISRDNAKNTVYLQMNSLKPEDTAVYYCAAVFWKSDSAYYEYGYWGQGTQVTVSS | low polyreactivity
HVQLVESGGGLVQAGGSLRFSCAASGFIFTNYAMGWYRQAPGTERELVAAISFSGSSTYYADSVKGRFTISRDNAKNTVYLQMNSLNPEDTAVYYCAVDGVPSSFSHDYWGQGTKVTVSS | low polyreactivity
HVQLVESGGGLVQAGGSLRISCAASGLIFVFYAMGWYRQAPGKERELVAAISTSGDRTYYADSVKGRFTISRDNAKNTVYLQMISLKPEDTAVYFCNARRLGYRSGHPGYYWGQGTQVTVSS | high polyreactivity
HVQLVESGGGLVQAGGSLRISCAASGRTFGHYAMGWNRQAPGKQRELVAVISGRNGDSTYYADSVKGRFTISRDNAKNTVYLQMNSLKPVYTAVYYCAAYKPWEYDYWGQGTEVTVSS | low polyreactivity
HVQLVESGGGLVQAGGSLRLRCAASGFTFYYNAMGWSRQAPGKERELVAAISTRGGNTYYADSVKGRFTISRDYAKNTVYLQRNSLKPEATAVYYCARIIRREGRYDYWGHGTQVTVSS | high polyreactivity
HVQLVESGGGLVQAGGSLRLSCAASGFTFANNAMGWYRQAPRKERELVAAISRSGGSTYYADSVKGRFTISRDNAKNTVYLQMNSLKPEDTAVYYCAVYNRPYKEYGYNYWGQGTQVTVSS | high polyreactivity
HVQLVESGGGLVQAGGSLRLSCAASGFTFVPYAMGWYRQAPGKERELVAAISSGGSTYYADSVKGRFTISRDNAKNTVYLQMNSLKPEDTAVYYCATTGWYRYGRKFYYWGQGTQVTVSS | high polyreactivity
HVQLVESGGGLVQAGGSLRLSCAASGGISIDNVMGWYRQATGKERELVAAISKSGGRTFYADSVKGRFTISRDNAKNTVYLQMNSLKPEDTAVYYCAKLYISKPYWYEHEYWGQGTQVTVSS | high polyreactivity
HVQLVESGGGLVQAGGSLRLSCAASGLTFAQYAMGWYRQAPGNERALVAAITGSGGSTYYADSVKGRFTISRDNAKNTVYLQLNSLKPEDTAVYYCNKLFYRWRIVDKYYYWGQGTQVTVSS | high polyreactivity
HVQLVESGGGLVQAGGSLRLSCAASGNIFVRYAMGWYRPAPGKERELVAAISSSGGRTYYADSVKGRFTISRDNAKNTVYLQMNSLKPEDTAVYYCATGRPSHNRYDYWGQGTQVTVSS | high polyreactivity
HVQLVESGGGLVQAGGSLRLSCAASGRIFGRNAMGWYRQAPGKERELVAAISSGGSTYYADSVKGRLTISRDNAKNTVYLQMNSLKPEDTAVYYFAVRGSYYNGGRAFESWGQGTQVTVSS | high polyreactivity
HVQLVESGGGLVQAGGSLRLSCAASGRIFPSNTMGWYRQAPGKERELVAAITRGDRTNYADSVKGRFTISRDNAKNTVYLQMNSLKPVDTAVYYCNARWGLPFGSGYYYWGQGTQVTVSS | low polyreactivity
HVQLVESGGGLVQAGGSLRLSCAASGRIFVDYVMGWYRQAPGKERELVARITWIGGNTYYADSVKGRFTISRDNAKNTVYFQMNCLKPEDTAVYYSNAGLTLLSRRHEGWYGDDYWGPGTQVTVSS | low polyreactivity
HVQLVESGGGLVQAGGSLRLSCAASGRIFVVYTMGWYRQAPGKERELVASIRGSGDSTNYADSVKGRFTLSRDNAKNTVYLQMNRLKPEDTAVYYCAADLPWSRRYSYRYGYWGQGTQVTVSS | low polyreactivity
HVQLVESGGGLVQAGGSLRLSCAASGRISIRNAMGWYRQAPGKERELGAAISRSGGSTYYADSVKGRFTISRDNAKNTVYIQMNSLKPEDTAVYYCAASFWSSGQWYDYWGQGTQVTVSS | high polyreactivity
HVQLVESGGGLVQAGGSLRLSCAASGRSLSDYAMGWYRQAPGKERELVATITSGDSTNYADSVKGRFTISRDNEKNTVYLQMNSLKPEDTEVYYCNADRFADYDYWGQGTQVTVSS | low polyreactivity

Sequence | polyreactivity (PSR sort gate)
HVQLVESGGGLVQAGGSLRLSCAASGRTFLVYAMGWDRQAPGKERELVADITRSGGRTYYADSVKGRITISRDNAKNTVYLQINSLKPEDTAVYYCAARPYFVGPIEYDYWGQGTQVTVSS | high polyreactivity
HVQLVESGGGLVQAGGSLRLSCAASGRTFYFNTMGWYRQAPGKEMELVASISYGSNTNYADSVKGRFTISRDNAKNTVYLQMNSLKPEDTAVYFCAVRWVYRTSSWGARYGRYDYWGQGTQVTVSS | high polyreactivity
HVQLVESGGGLVQAGGSLRLSCAASGRTLYNNAMGWYRQAPGKERELVAAISSRGGSTRYADSVKGRFTISRDNAKNTVYLQMNSLKPEDTAVYSGAKRSINRDGDYWGQGTQVTVSS | high polyreactivity
HVQLVESGGGLVQAGGSLRLSCAASGSIFGHYAMGWYRQATGKERELVAAISSGGSTNYADSVKGRFTISRDNAKNTVYLQMNSLIPEDTAVYYCAPTSWWPPGYDYWGQGTQVTVSS | high polyreactivity
HVQLVESGGGLVQAGGSLRLSCAASGSIFGNYVMGWYRQAPGKERELVAAISWSGGTNYADSVKGRFTISRDNAKNTVYLQMKSLKPEDTAVYYCAALSVWSYYTYYYWGQGTQVTVSS | high polyreactivity
HVQLVESGGGLVQAGGSLRLSCAASGSIFNSNGMGWYRQATGKERELVAAITGGGSTNYADSVKGRFTISRDNAKNTVYLQMNSLKPEDTAVYYCAARPLRTDWAYYYWGQGTQVTVSS | low polyreactivity
HVQLVESGGGLVQAGGSLRLSCAASGSIFPRYSMGRYRQAPGKEMELVAAITSGGSTYYADSVKGRFTISRDNAKNTVYLQMNSLKPEDTAVYYCAATIYRPKGGTYGWYGYDYWGQGTQVTVSS | high polyreactivity
HVQLVESGGGLVQAGGSLRLSCAASGSIFSGNAMGWYRQAPGKERELVAAISYSDGSTYYADSVKGRFTISRDNAKNTVYLQMNSLKPEDTAVYYCAADGYPYTYDYWGQGTQVTVST | low polyreactivity
HVQLVESGGGLVQAGGSLRLSCAASGSIYGGNTMGWYRQAPGKERELVAAISRSGGSTYYADSVKGRFTISRDNAKNTVYLQMNSLKREDTAVYYCKRKQAGHGQGYDYWGQGTQVTVSS | high polyreactivity
HVQLVESGGGLVQAGGSLRLSCAASGSTFAAYAMGWYRQAPGKERELVAAITKRGGTTYYADSVKGRVTISRDHAKNSVYLQMNSLKPEDTAVYYCAKTRYYSALLHYDYDTWGQGTQVTVST | high polyreactivity
HVQLVESGGGLVQAGGSLRLSCAASGSTFDVYAMGWYRQAPGKERELVAAISRSGGSTYYADSVKGRFTISRDNAKNTVYLQMNSLKPEDTAVYYCNARLARWGSYEYNYWGQGTQVTVSS | low polyreactivity
HVQLVESGGGLVQAGGSLRLSCAASGSTFKRNTMGWYRQAPGKERELVAAISRSGGSTYYADSVKGRFTISRDNAKNTVYLQMNSLKPEDTAVYYCNAYVSSYVGSRSYGLSPYDYWGQGTQVTVSS | high polyreactivity
HVQLVESGGGLVQAGGSLRLSCAASGSTFKRYAMGGDRQAPGKEREFVAGISWRGGSTYYADSVKGRFTISRDNAKNTVYLQMNSLKPEDTAVYFCAARSFSNIGYHGYGYWGQGTQVTVSS | high polyreactivity
HVQLVESGGGLVQAGGSLRLSCAASVTFSFYAMGWYTQSPGKERELVAAISSIGDSTYYADSVKGRFTISRDNAKNTVYLQMNSLKPEETAVYYYGVIAVDAYDYYTYDYWRQGTQVTVSS | high polyreactivity
HVQLVESGGGLVQAGGSLRLTCAASGFSYGYYAMGWYRQAPGKEWELVATISSGDNTYYADSVKGRFTSSRDNAKNTVYLQMNSLKPEDTAVYYCAARYPHYFVRGGYWGQGTQVTVSS | high polyreactivity
HVQLVESGGGLVQAGGSLRLTCAASGLTFSSYAMGWYRQAPGKERELVADITYRGGSTYYADSVKGRFTISRDNEKNTVYLQMNSLKPEDTAVYYCAARKKYRFDYWGQGTQVTVSS | high polyreactivity
HVQLVESGGGLVQARGSLRLSCAASGRTSWYYAMGWYRQAPGKEKELVAAITASGGSTYADSVKGRFTISRDNAKNTVYLEMNSLKPEDTAVYYCAAERPYSRVGYYYWGQGTQVTVSS | high polyreactivity
HVQLVESGVGLVQAAGSLRLSCAASGLIFRWYAMGWYRQAPVKERELFAAISRGGSTNYADSVKGRFTISRDNAKNTVYLQMNSLKPEDTAVYYCATVYSVRYGGRYYYAFGLYDYWGQGTQVTVSS | high polyreactivity
HVQLVESVGGLVQAGGSLRLRCAASGLTFRCNGMGWYRQEPGKETELVAAISSSGGSTYYADSVKGRFTISRDNAKNTVYLQLNSLKPEDTGVYFCARLVFYSQGVREMDYWGQGTQVTGSS | high polyreactivity
IIQAGGSLRLSCAASGRTFSGYAMGWYRPAPGKERELIADITSGGSTYYADSVKGRFTISRDNAKNTVYLQMNSLKPEDTAVYYCNKVYPVVLYEPQYDYWGQGTQVTVSS | low polyreactivity
KDQLVESGGGLVQAGGSLRLSGAASGRTFASNDMVWYRQAPGKERELVADINNGARTYYADSVKGRFTISRDNAKNTVYLQMNSLKPEDSAVYYCNARPWYWWECRYDYWGQGTQVTVSS | high polyreactivity
